Measured values published in the supplement of paper PMC9170038.

tested on: K4 kissing-loop RNA reporter; assay: apparent KD of K4 kissing-loop reporter; higher = weaker reporter binding; conditions: Eterna round: R107; input ligand: FMN 200 uM
Description: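 RNA-MaP round R107: designed RNA switches with theophylline, tryptophan, arginine or FMN aptamers are transcribed on-chip within common flanks. They are titrated with a labelled K4 kissing-loop RNA reporter in RNA-MaP buffer (100 mM Tris pH 7.5, 80 mM KCl, 4 mM MgCl2), without ligand or with the indicated ligand. Median apparent KD per design.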
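Note: bound reporter read as fluorescence of individual clusters on recovered sequencing chips by microscopy, with normalized cluster intensities fitted with a binding model.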

Sequence	apparent KD of K4 kissing-loop reporter [nM]
ACGUAUAUCAGAGGAUAUCGUAUUAAUAUUUUAUCUAUAUAUUAUAGCAGUGAUGUUGCAAUUAUUCGAGAAGGCUGAUUUACGA [JR_SSFMNB_Sub023]	144
GUAACCUUGCUCGAGUGAUGUUCGAGCGAAGGAGCGCGAGAAAUCGCAGGUAGGUCGCGCUCGAAAUUUGAGCGAACAAUUAUUA [Arg A Ex t2]	128
GGCAUAUGAAAUCGCCUAGAGAGAAAGGAUACCAGCACCCGGCGGUGCCCUUGGCAGCCUAGCCCAGUGAUGUUGGGUCCUCUAA [Rasoonanxe]	228
CGCCGCAAGGCGAGCGCUCCCACUCCGGAAGGAGCGCCCGAAAGGGCAGGUAGGUCGCCGGAGUGAUGUUCCGGUGGAGGGCUCG [#2 Exclusion - Arginine A Attempt #27 (Inspired by Omei)]	379
UUUAUUAAGACGGCCGCCACUGAUUCAUAGUGAUGUUAUGAUAUAAUUUUAGUGAUUUUGAUUAGCAGGACCGGGUCAAUUAUUA [JR_ExcTryptoB_Sub016]	221
GCAGACACGCAGUGAUGUUGCGAAACGGAAGGAGCGCGUGAAAACGCAGGUAGGUCGCCGAAACAUAAAUUAUAAUUUUGUUUGC [Arginine A K4 13]	244
AAGUCAUAUAGAAGGAGCGUGUUUUUUAAUUUGUUUUCAUGAUCGAGUGAUGUUCGAUAUACACAGGUAGGUCGCUGUAUGAUAA [hbob_SS_Arginine_B_2t143]	128
UUUGGUUUCUCGGCCGCCACUCGUUGUCUAUCGGCUUCAGGGAUAUAGUGAUGUUAUGUAUAGAAGAGGACCGGGAGAAGGUUCU [ExTryptoB.Dx]	280
CCGAAGAACCAGUGAUGUUGGUUGACUAGACAGGAUAUGAGCAACAUCAGAAGGGUCUGGCUUCGGGAGUGGGCCGCGCUGACCU [Artilati]	324
CCGGGCGGCUGAAGGAGCGGGCGGGCCCGAGUGAUGUUCGGGUGGGCCGUGAGGUCCGGUGCCCAGGUAGGUCGCGGUUCCGCCC [#2 Same State - Arginine B Attempt #10 (HarryS)]	200
GCUAUGGUAGGAAGGAGCGCUGCGUUGUUUUUACGAGUGAUGUUCGGAAGCGGCGUGUUAAAGCAGGUAGGUCGCCUACUAUAGC [Arginine B K4 24]	162
AGUGAUGUGGGAAGGAGCGCUACAAGACUUCAGUGAUGUUGAAGUGAUGAUUUAGUGUUGUAGCAGGUAGGUCGCCUAGAUGUUA [KL-XARG-B9]	60.9
UGCUUAGUGAUGUUUGAUUUGGUGCAUGCAGAGGAUAUAGGGUGCUUUAGAAGGCUGAGGAGUGCGCCGAGUGAUGUUCGGCGCU [Exclusion FMN A GF11]	192
AAAUUGUUUAGAGGAUAUUCUUUAUUCGACAUAACCUUCUAUAAGGUGCAGUGAUGUUGCAAUAUAGGAGAAGGUUGAGUGAUAA [Exclusion FMN B Gf 15]	135
AAUAUCUAGUAUAUAUUUUAUAAAACAGAUACCAGUGAUUAUAUACACCCUUGGCAGCUGGACGAGUGAUGUUCGUAUAUAUUAA [JR_SSTheophyA_Sub008]	118
UACAUAUAGUUAUUUCUACAUUUAUUUAGUCAGGAUAUCGAUUAGACGAGAAGGGACAAUAUCAAGUGAUGUUUGAUAAUUCAAA [JR_ExcFMNA_Sub011]	75.7

Sequence	apparent KD of K4 kissing-loop reporter [nM]
CUCGAGUGAUGUUCGAUUAUUUAUACAGAUACCAGUGAAUUUUAACACCCUUGGCAGCUGGUAGUAUCUUUGUAAUUUUAACUAG [JR_ExcTheophyA_Sub003]	133
ACCUACGAUCACGAAAGUGAUUGUAGGAUCUAGGAUAUGCUGAAGAGCAGAAGGAGAGUGAUGUUCUCAUCUCACGAAAGUGAGA [whbob_Ex_FMNA__2th190]	437
UUUCGUUUCGUCUGACAUAAUUGGCUAGAAGGAGCGGUAAAAUUACCAGGUAGGUCGCUAGCCCAGUGAUGUUGGGACUAGCAUA [Onqudi]	148
CGCCGGAAGGCGAGCGCUCCCACUCCGGAAGGAGCGCCCGAAAGGGCAGGUAGGUCGCCGGAGUGAUGUUCCGGUGGAGGGCUCG [#2 Exclusion - Arginine A Attempt #29 (Inspired by Omei)]	125
GUUACGCAUGGAAGGAGCGCACUCCGAUUGAUCGACACAGUGAUGUUGUGGUUCGUUCGAAUGCAGGUAGGUCGCCAUGUGUAAC [Ex Arginine B K4 17]	259
CUAGCUAGCAUGGAAACAUGCUAGCUAGAUUAGGAUAUGACGUAAGUCAGAAGGGAUAAAUGGAGUGAUGUUCCGGACGCAAGUC [#2 Same State - FMN A Attempt #4 (HarryS)]	255
UAAAACGCUUGAAUAACAAGCGAAAAUUCGCGAGGACCGGUACGGCCGCCACUCGCUAACUGCGAGUGAUGUUCGAUAAUAAAAU [Mat - Mod of OpenEnded 3 - D4]	149
GUGAAGGAGAUGCAGUGAUGUUGCAGAGACUAGGAUAUCAGGAAACUGAGAAGGAGUCAAUUCCUUCAUUUAGACUGCAACAUAA [KL-SSFMN-A12]	204
GAUUCUGUUCGAAAGAACGGAAUCACGGAAGGAGCGAGAGAAAUCUCAGGUAGGUCGCCGAAUUUUUGAUAGUGAUGUUAUCAUU [Arginine A K4 2]	422
CAUAGGAAACUAUGUUUCUCUCUUACUGAAGGAGCGCGUGAAAACGCAGGUAGGUCGCAGAAUUUAAAAGAGAGUGAUGUUCUCA [Ex Arginine A K4 11]	431
UUAUAUUUUAUAUUUAGUAGAGCUCUCGCUCGAGGACCGGUACGGCCGCCACUCGAGUGAUGUUCGAGUGGGAGAGCUCUACAUU [AK3.3 EXC Tryptophan A]	108
CGUAAGGAUUGACGACUGCAGAGCAAAAUAAAGGAUAUCGCAGCGUCGAGAAGGUUAUCGUGCGCCAGUGAUGUUGGCGGUAGUC [theeternabot_sameState_KL_FMN_A_22]	84.1
UCCUGCAAUCGGCCACGAAAGUGGAUGGAUACCAGAGUCGAAAGACUCCCUUGGCAGCCAGUGAUGUUGGAAGCAGGUAAAUAAA	838
CUAUGGAAACAUAGGAAUCGGGAAACCGAUACCAGUAUGGAAACAUACCCUUGGCAGCGGAAUGAUUCAACGGAGUGAUGUUCCG [Theophylline A K4 20]	395
ACGUAGCAGGCGGCCGCCACUCCGCAUAUGGAUCUCGAGUGAUGUUUGAGGGUGCCCAUCACAGCGAGGACCGGGCCAAUUAAGC [theeternabot_sameState_KL_Trp_B_10]	86.2
GUUACGCAUGGAAGGAGCGCUCUCAUGCUUAAUAACACAGUGAUGUUGUGAAUUUGCAUAAAGCAGGUAGGUCGCCAUGUGUAAC [Ex Arginine B K4 8]	399

same assay, conditions: Eterna round: R107; input ligand: arginine 13.2 mM

Sequence	apparent KD of K4 kissing-loop reporter [nM]
ACGUAUAUCAGAGGAUAUCGUAUUAAUAUUUUAUCUAUAUAUUAUAGCAGUGAUGUUGCAAUUAUUCGAGAAGGCUGAUUUACGA [JR_SSFMNB_Sub023]	170
GUAACCUUGCUCGAGUGAUGUUCGAGCGAAGGAGCGCGAGAAAUCGCAGGUAGGUCGCGCUCGAAAUUUGAGCGAACAAUUAUUA [Arg A Ex t2]	125
GGCAUAUGAAAUCGCCUAGAGAGAAAGGAUACCAGCACCCGGCGGUGCCCUUGGCAGCCUAGCCCAGUGAUGUUGGGUCCUCUAA [Rasoonanxe]	149
CGCCGCAAGGCGAGCGCUCCCACUCCGGAAGGAGCGCCCGAAAGGGCAGGUAGGUCGCCGGAGUGAUGUUCCGGUGGAGGGCUCG [#2 Exclusion - Arginine A Attempt #27 (Inspired by Omei)]	185
UUUAUUAAGACGGCCGCCACUGAUUCAUAGUGAUGUUAUGAUAUAAUUUUAGUGAUUUUGAUUAGCAGGACCGGGUCAAUUAUUA [JR_ExcTryptoB_Sub016]	179
GCAGACACGCAGUGAUGUUGCGAAACGGAAGGAGCGCGUGAAAACGCAGGUAGGUCGCCGAAACAUAAAUUAUAAUUUUGUUUGC [Arginine A K4 13]	194
AAGUCAUAUAGAAGGAGCGUGUUUUUUAAUUUGUUUUCAUGAUCGAGUGAUGUUCGAUAUACACAGGUAGGUCGCUGUAUGAUAA [hbob_SS_Arginine_B_2t143]	146
UUUGGUUUCUCGGCCGCCACUCGUUGUCUAUCGGCUUCAGGGAUAUAGUGAUGUUAUGUAUAGAAGAGGACCGGGAGAAGGUUCU [ExTryptoB.Dx]	267
